The series deals with the molecule itself. Nature of the series: Western blot of cell lysate under non-denatured or denatured conditions.

B1: Flag-EGFP-tagged SPESP1 (equatorial segment protein 1) expressed in CHO-K1 cells (natural protein, mouse, UniProt Q9D5A0 19-399, looked up)
chain: YPTITVLPDEEQNLNHYVHILQNLIMSVPTKEQDLGKKLSSSRTVDSAEPRSLASKVLLTPGLVSAQDVTPESDVLIRPVDETTNSRTRGFTLRRRRTQSTAFWSIRPNNISVVLRTEEPFIEKEPEPELESSRLPTEPEPELEPEPEPVAESRQMSEPEEELVTSTTPNKELTGTSRISSMATQPANTQATRITVTVKTTSTMDVSTDSEDVPQLSGQSEIPSAEDLPGRHSLNTRHEDILKKISNINAEIQQGLLGGNNSPEFKEFIKASREHLKRSLALAAAAEHKLEQMYGSNVFPEGRTSDPDNDMEMIINMLYNSRSKLSDYFNIKRVPSELREKASVVNAELRKILCVDQVEMQSLIKKLLSNNMKILNILNVP
modifications: O-GalNAc glycans (VVA-positive on blot); sites on this construct not stated
Consider B1, for which the “stoichiometry N” value is 2.

By stoichiometry N is commonly meant the number of molecules, sites or subunits per partner or assembly.

For the origin of these results see publication PMC11920050 (Nature Communications, 2025).
